Test results as given in article PMC10853069.

What was measured:
[1] = target: Taxol-stabilized microtubules polymerized from purified porcine tubulin (porcine) (UniProt P02550); assay: cross-linking
[2] = target: Taxol-stabilized microtubules polymerized from purified porcine tubulin (porcine) (UniProt P02550); assay: co-sedimentation

| Substance | MEI-2*tubulin crosslinked band, percent of the WT fragment [1] | Kd [2] | MEI-2*tubulin crosslinked band, percent of WT [1] |
| --- | --- | --- | --- |
| MBP-MEI-2 1–90 K77A-K78A (from UniProt O44740 1-90) (domain or fragment) | 84% |  |  |
| MBP-MEI-2 1–90 K77D-K78D (from UniProt O44740 1-90) (domain or fragment) | 87% |  |  |
| MBP-MEI-2 full length 6KA (K8A-K9A K77A-K78A K274A-K275A) (from UniProt O44740 1-280) (natural protein) |  | 3.68 µM | 53% |
| MBP-MEI-2 full length 6KD (K8D-K9D K77D-K78D K274D-K275D) (from UniProt O44740 1-280) (natural protein) |  | 6.15 µM | 6% |
